Data from patent publication US20170015742A1 (published 2017).
Residue numbers refer to the chain shown, from its start.

B1: 9E8.4_GS_9E10.1 (bispecific antibody, human IgG1, kappa, L234A L235A)
heavy: EVTLRESGPALVKPTQTLTLTCTFSGFSLSTYGMGVGWIRQPPGKALEWLANIWWDDDKYYNPSLKNRLTISKDTSKNQVVLTMTNMDPVDTATYYCARIESIGTTYSFDYWGQGTMVTVSSGGGGSGGGGSEIQLVQSGSELKKPGASVKVSCKASGYTFTNYGMYWVKQAPGQGLEYMGWIDTETGRPTYADDFKGRFVFSLDTSVSTAYLQISSLKAEDTAVYFCARWSGDTTGIRGPWFAYWGQGTLVTVSSASTKGPSVFPLAPSSKSTSGGTAALGCLVKDYFPEPVTVSWNSGALTSGVHTFPAVLQSSGLYSLSSVVTVPSSSLGTQTYICNVNHKPSNTKVDKKVEPKSCDKTHTCPPCPAPEAAGGPSVFLFPPKPKDTLMISRTPEVTCVVVDVSHEDPEVKFNWYVDGVEVHNAKTKPREEQYNSTYRVVSVLTVLHQDWLNGKEYKCKVSNKALPAPIEKTISKAKGQPREPQVYTLPPSREEMTKNQVSLTCLVKGFYPSDIAVEWESNGQPENNYKTTPPVLDSDGSFFLYSKLTVDKSRWQQGNVFSCSVMHEALHNAYTQKSLSLSPGK
light: EFVLTQSPGTLSLSPGERATLSCERSSGDIGDSYVSWYQQKPGQAPRLVIYADDQRPSGIPDRFSGSGSGTDFTLTISRLEPEDFAVYYCQSYDINIDIVFGGGTKVEIKGGSGGGGSGGDIRMTQSPSSLSASVGDRVTIECLASEDIYSDLAWYQQKPGKSPKLLIYNANGLQNGVPSRFSGSGSGTDYSLTISSLQPEDVATYFCQQYNYFPGTFGQGTKLEIKRTVAAPSVFIFPPSDEQLKSGTASVVCLLNNFYPREAKVQWKVDNALQSGNSQESVTEQDSKDSTYSLSSTLTLSKADYEKHKVYACEVTHQGLSSPVTKSFNRGEC
B2: 9E8.4_GS_9E10.6 (bispecific antibody, human IgG1, kappa, L234A L235A)
heavy: EVTLRESGPALVKPTQTLTLTCTFSGFSLSTYGMGVGWIRQPPGKALEWLANIWWDDDKYYNPSLKNRLTISKDTSKNQVVLTMTNMDPVDTATYYCARIESIGTTYSFDYWGQGTMVTVSSGGGGSGGGGSEVQLVQSGAEVKKPGSSVKVSCKASGYTFTNYGMYWVRQAPGQGLEWMGWIDTETGRPTYADDFKGRFTFTADKSTSTAYMELSSLRSEDTAVYYCARWSGDTTGIRGPWFAYWGQGTLVTVSSASTKGPSVFPLAPSSKSTSGGTAALGCLVKDYFPEPVTVSWNSGALTSGVHTFPAVLQSSGLYSLSSVVTVPSSSLGTQTYICNVNHKPSNTKVDKKVEPKSCDKTHTCPPCPAPEAAGGPSVFLFPPKPKDTLMISRTPEVTCVVVDVSHEDPEVKFNWYVDGVEVHNAKTKPREEQYNSTYRVVSVLTVLHQDWLNGKEYKCKVSNKALPAPIEKTISKAKGQPREPQVYTLPPSREEMTKNQVSLTCLVKGFYPSDIAVEWESNGQPENNYKTTPPVLDSDGSFFLYSKLTVDKSRWQQGNVFSCSVMHEALHNAYTQKSLSLSPGK
light: B1 light with E142T, S192T
B3: 9E8.4_GS_1E3.4 (bispecific antibody, human IgG1, kappa, L234A L235A)
heavy: EVTLRESGPALVKPTQTLTLTCTFSGFSLSTYGMGVGWIRQPPGKALEWLANIWWDDDKYYNPSLKNRLTISKDTSKNQVVLTMTNMDPVDTATYYCARIESIGTTYSFDYWGQGTMVTVSSGGGGSGGGGSEIQLVQSGSELKKPGASVKVSCKASGYPFTNSGMYWVKQAPGQGLEYMGWINTEAGKPTYADDFKGRFVFSLDTSVSTAYLQISSLKAEDTAVYFCARWGYISDNSYGWFDYWGQGTLVTVSSASTKGPSVFPLAPSSKSTSGGTAALGCLVKDYFPEPVTVSWNSGALTSGVHTFPAVLQSSGLYSLSSVVTVPSSSLGTQTYICNVNHKPSNTKVDKKVEPKSCDKTHTCPPCPAPEAAGGPSVFLFPPKPKDTLMISRTPEVTCVVVDVSHEDPEVKFNWYVDGVEVHNAKTKPREEQYNSTYRVVSVLTVLHQDWLNGKEYKCKVSNKALPAPIEKTISKAKGQPREPQVYTLPPSREEMTKNQVSLTCLVKGFYPSDIAVEWESNGQPENNYKTTPPVLDSDGSFFLYSKLTVDKSRWQQGNVFSCSVMHEALHNAYTQKSLSLSPGK
light: EFVLTQSPGTLSLSPGERATLSCERSSGDIGDSYVSWYQQKPGQAPRLVIYADDQRPSGIPDRFSGSGSGTDFTLTISRLEPEDFAVYYCQSYDINIDIVFGGGTKVEIKGGSGGGGSGGATQLTQSPSSLSASVGDRVTISCRASEGVYSYMHWYQQKPGKQPKLLIYKASNLASGVPSRFSGSGSGTDFTLTISSLQPEDFATYFCHQNWNDPLTFGQGTKLEIKRTVAAPSVFIFPPSDEQLKSGTASVVCLLNNFYPREAKVQWKVDNALQSGNSQESVTEQDSKDSTYSLSSTLTLSKADYEKHKVYACEVTHQGLSSPVTKSFNRGEC
B4: 4G8.5_GS_9E8.4 (bispecific antibody, human IgG1, kappa, L234A L235A)
heavy: EIQLVQSGSELKKPGASVKVSCKASGYTFTNYGMYWVRQAPGQGLEYMGWINTETGKPTYADDFKGRFVFSLDTSVSTAYLQISSLKAEDTAVYFCARTNYYYRSYIFYFDYWGQGTMVTVSSGGGGSGGGGSEVTLRESGPALVKPTQTLTLTCTFSGFSLSTYGMGVGWIRQPPGKALEWLANIWWDDDKYYNPSLKNRLTISKDTSKNQVVLTMTNMDPVDTATYYCARIESIGTTYSFDYWGQGTMVTVSSASTKGPSVFPLAPSSKSTSGGTAALGCLVKDYFPEPVTVSWNSGALTSGVHTFPAVLQSSGLYSLSSVVTVPSSSLGTQTYICNVNHKPSNTKVDKKVEPKSCDKTHTCPPCPAPEAAGGPSVFLFPPKPKDTLMISRTPEVTCVVVDVSHEDPEVKFNWYVDGVEVHNAKTKPREEQYNSTYRVVSVLTVLHQDWLNGKEYKCKVSNKALPAPIEKTISKAKGQPREPQVYTLPPSREEMTKNQVSLTCLVKGFYPSDIAVEWESNGQPENNYKTTPPVLDSDGSFFLYSKLTVDKSRWQQGNVFSCSVMHEALHNAYTQKSLSLSPGK
light: ATQLTQSPSLSASVGDRVTITCRASESVSTHMHWYQQKPGKQPKLLIYGASNLESGVPSRFSGSGSGTDFTLTISSLQPEDFATYFCQQSWNDPFTFGQGTKLEIKGGSGGGGSGGEFVLTQSPGTLSLSPGERATLSCERSSGDIGDSYVSWYQQKPGQAPRLVIYADDQRPSGIPDRFSGSGSGTDFTLTISRLEPEDFAVYYCQSYDINIDIVFGGGTKVEIKRTVAAPSVFIFPPSDEQLKSGTASVVCLLNNFYPREAKVQWKVDNALQSGNSQESVTEQDSKDSTYSLSSTLTLSKADYEKHKVYACEVTHQGLSSPVTKSFNRGEC
B5: 9E8.4_GS_1B10.1 (bispecific antibody, human IgG1, kappa, L234A L235A)
heavy: EVTLRESGPALVKPTQTLTLTCTFSGFSLSTYGMGVGWIRQPPGKALEWLANIWWDDDKYYNPSLKNRLTISKDTSKNQVVLTMTNMDPVDTATYYCARIESIGTTYSFDYWGQGTMVTVSSGGGGSGGGGSEVQLVESGGGLVQPGGSLRLSCAASGFSFSKYDMAWFRQAPGKGLEWVASITTSGVGTYYRDSVKGRFTVSRDNAKSTLYLQMNSLRAEDTAVYYCARGYGAMDAWGQGTTVTVSSASTKGPSVFPLAPSSKSTSGGTAALGCLVKDYFPEPVTVSWNSGALTSGVHTFPAVLQSSGLYSLSSVVTVPSSSLGTQTYICNVNHKPSNTKVDKKVEPKSCDKTHTCPPCPAPEAAGGPSVFLFPPKPKDTLMISRTPEVTCVVVDVSHEDPEVKFNWYVDGVEVHNAKTKPREEQYNSTYRVVSVLTVLHQDWLNGKEYKCKVSNKALPAPIEKTISKAKGQPREPQVYTLPPSREEMTKNQVSLTCLVKGFYPSDIAVEWESNGQPENNYKTTPPVLDSDGSFFLYSKLTVDKSRWQQGNVFSCSVMHEALHNAYTQKSLSLSPGK
light: EFVLTQSPGTLSLSPGERATLSCERSSGDIGDSYVSWYQQKPGQAPRLVIYADDQRPSGIPDRFSGSGSGTDFTLTISRLEPEDFAVYYCQSYDINIDIVFGGGTKVEIKGGSGGGGSGGDIQMTQSPSSLSASVGDRVTITCKASQDIDDYLSWYQQKPGKSPKLVIYAATRLADGVPSRFSGSGSGTDYTLTISSLQPEDFATYYCLQSSSTPWTFGGGTKVEIKRTVAAPSVFIFPPSDEQLKSGTASVVCLLNNFYPREAKVQWKVDNALQSGNSQESVTEQDSKDSTYSLSSTLTLSKADYEKHKVYACEVTHQGLSSPVTKSFNRGEC

Each binder was assayed against recombinant human VEGF165 (human, UniProt P15692 207-395) (assay: cell-based or functional assay).
Sequence of recombinant human VEGF165 (P15692 other isoform, or with tags, fused parts or gaps limits assumed): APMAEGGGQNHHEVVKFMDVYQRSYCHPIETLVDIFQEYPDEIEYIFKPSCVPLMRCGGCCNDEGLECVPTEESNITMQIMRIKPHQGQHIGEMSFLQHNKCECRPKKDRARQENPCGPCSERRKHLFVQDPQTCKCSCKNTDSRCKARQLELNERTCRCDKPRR

Potency IC50 (nM) HMVEC-d hVEGF165	Binder
0.073 nM	B1
0.132 nM	B2
0.897 nM	B3
0.069 nM	B4
0.391 nM	B5

What follows are binders tested against recombinant human PDGF-BB (human, UniProt P01127 82-190) (assay: cell-based or functional assay).
Sequence of recombinant human PDGF-BB (P01127 82-190 limits assumed): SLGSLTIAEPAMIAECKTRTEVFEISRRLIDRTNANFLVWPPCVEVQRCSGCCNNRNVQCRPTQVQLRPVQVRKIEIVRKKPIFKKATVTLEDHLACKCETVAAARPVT

Potency IC50 (nM) NIH-3T3 hPDGF-BB	Binder
0.317 nM	B1
0.213 nM	B2
0.131 nM	B3
4.83 nM	B4
0.109 nM	B5
